Laboratory results: the supplement of paper PMC5998384

How the values were obtained:
HeLa Kyoto [1] = assay: thermal stability score vs G1/S (z-score of summed log2 fold changes over temperatures); higher = more thermally stable than in G1/S
HeLa Kyoto [2] = assay: melting temperature (median over replicates), in situ; higher = more thermally stable
HeLa Kyoto [3] = assay: solubility change mitosis vs G1/S (difference of NP-40 vs SDS log2 ratios) (log2 ratio difference); higher = more soluble in mitosis
HeLa Kyoto [4] = assay: solubility in G1/S (NP-40 vs SDS abundance) (log2 ratio); higher = more soluble; settings: cell cycle stage: G1/S
[5] = cell cycle stage: early G1 (4.5 h after nocodazole release)
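For melting temperature (median over replicates), in situ in this document: HeLa Kyoto cells synchronized by double thymidine or nocodazole block, proteins quantified by TMT10plex mass spectrometry, three independent biological replicates.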
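For solubility change mitosis vs G1/S (difference of NP-40 vs SDS log2 ratios) in this document: synchronized HeLa Kyoto cells (double thymidine block for G1/S, nocodazole release for mitosis), protein amounts in NP-40 versus SDS lysates quantified by mass spectrometry, three biological replicates.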
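For solubility in G1/S (NP-40 vs SDS abundance) in this document: HeLa Kyoto cells arrested at G1/S by double thymidine block, proteins quantified by TMT10plex mass spectrometry in mild NP-40 versus SDS extracts, three biological replicates.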
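For thermal stability score vs G1/S (z-score of summed log2 fold changes over temperatures) in this document: synchronized HeLa Kyoto cells, proteins quantified by TMT10plex mass spectrometry, three biological replicates, mitosis taken 0.5 h after nocodazole release, G1/S directly after double thymidine block.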

| Sequence | thermal stability score (HeLa Kyoto [1]; [5]) | thermal stability score (HeLa Kyoto [1]; cell cycle stage: mitosis) | melting temperature (HeLa Kyoto [2]; cell cycle stage: G1/S) [°C] | melting temperature (HeLa Kyoto [2]; cell cycle stage: mitosis) [°C] | solubility change mitosis (log2) (HeLa Kyoto [3]) | solubility in G1/S (log2) (HeLa Kyoto [4]) |
| --- | --- | --- | --- | --- | --- | --- |
| MGDHAWSFLKDFLAGGVAAAVSKTAVAPIERVKLLLQVQHASKQISAEKQYKGIIDCVVRIPKEQGFLSFWRGNLANVIRYFPTQALNFAFKDKYKQLFLGGVDRHKQFWRYFAGNLASGGAAGATSLCFVYPLDFARTRLAADVGKGAAQREFHGLGDCIIKIFKSDGLRGLYQGFNVSVQGIIIYRAAYFGVYDTAKGMLPDPKNVHIFVSWMIAQSVTAVAGLVSYPFDTVRRRMMMQSGRKGADIMYTGTVDCWRKIAKDEGAKAFFKGAWSNVLRGMGGAFVLVLYDEIKKYV [SLC25A4] | -2.08 | -1.11 | 58.1 | 56.4 | -0.117 | -0.352 |
| MGDTVVEPAPLKPTSEPTSGPPGNNGGSLLSVITEGVGELSVIDPEVAQKACQEVLEKVKLLHGGVAVSSRGTPLELVNGDGVDSEIRCLDDPPAQIREEEDEMGAAVASGTAKGARRRRQNNSAKQSWLLRLFESKLFDISMAISYLYNSKEPGVQAYIGNRLFCFRNEDVDFYLPQLLNMYIHMDEDVGDAIKPYIVHRCRQSINFSLQCALLLGAYSSDMHISTQRHSRGTKLRKLILSDELKPAHRKRELPSLSPAPDTGLSPSKRTHQRSKSDATASISLSSNLKRTASNPKVENEDEELSSSTESIDNSFSSPVRLAPEREFIKSLMAIGKRLATLPTKEQKTQRLISELSLLNHKLPARVWLPTAGFDHHVVRVPHTQAVVLNSKDKAPYLIYVEVLECENFDTTSVPARIPENRIRSTRSVENLPECGITHEQRAGSFSTVPNYDNDDEAWSVDDIGELQVELPEVHTNSCDNISQFSVDSITSQESKEPVFIAAGDIRRRLSEQLAHTPTAFKRDPEDPSAVALKEPWQEKVRRIREGSPYGHLPNWRLLSVIVKCGDDLRQELLAFQVLKQLQSIWEQERVPLWIKPYKILVISADSGMIEPVVNAVSIHQVKKQSQLSLLDYFLQEHGSYTTEAFLSAQRNFVQSCAGYCLVCYLLQVKDRHNGNILLDAEGHIIHIDFGFILSSSPRNLGFETSAFKLTTEFVDVMGGLDGDMFNYYKMLMLQGLIAARKHMDKVVQIVEIMQQGSQLPCFHGSSTIRNLKERFHMSMTEEQLQLLVEQMVDGSMRSITTKLYDGFQYLTNGIM [PI4KB] | -0.522 | -0.618 | 52.3 | 52.2 | -0.221 | 0.00648 |
| MGFLKLIEIENFKSYKGRQIIGPFQRFTAIIGPNGSGKSNLMDAISFVLGEKTSNLRVKTLRDLIHGAPVGKPAANRAFVSMVYSEEGAEDRTFARVIVGGSSEYKINNKVVQLHEYSEELEKLGILIKARNFLVFQGAVESIAMKNPKERTALFEEISRSGELAQEYDKRKKEMVKAEEDTQFNYHRKKNIAAERKEAKQEKEEADRYQRLKDEVVRAQVQLQLFKLYHNEVEIEKLNKELASKNKEIEKDKKRMDKVEDELKEKKKELGKMMREQQQIEKEIKEKDSELNQKRPQYIKAKENTSHKIKKLEAAKKSLQNAQKHYKKRKGDMDELEKEMLSVEKARQEFEERMEEESQSQGRDLTLEENQVKKYHRLKEEASKRAATLAQELEKFNRDQKADQDRLDLEERKKVETEAKIKQKLREIEENQKRIEKLEEYITTSKQSLEEQKKLEGELTEEVEMAKRRIDEINKELNQVMEQLGDARIDRQESSRQQRKAEIMESIKRLYPGSVYGRLIDLCQPTQKKYQIAVTKVLGKNMDAIIVDSEKTGRDCIQYIKEQRGEPETFLPLDYLEVKPTDEKLRELKGAKLVIDVIRYEPPHIKKALQYACGNALVCDNVEDARRIAFGGHQRHKTVALDGTLFQKSGVISGGASDLKAKARRWDEKAVDKLKEKKERLTEELKEQMKAKRKEAELRQVQSQAHGLQMRLKYSQSDLEQTKTRHLALNLQEKSKLESELANFGPRINDIKRIIQSREREMKDLKEKMNQVEDEVFEEFCREIGVRNIREFEEEKVKRQNEIAKKRLEFENQKTRLGIQLDFEKNQLKEDQDKVHMWEQTVKKDENEIEKLKKEEQRHMKIIDETMAQLQDLKNQHLAKKSEVNDKNHEMEEIRKKLGGANKEMTHLQKEVTAIETKLEQKRSDRHNLLQACKMQDIKLPLSKGTMDDISQEEGSSQGEDSVSGSQRISSIYAREALIEIDYGDLCEDLKDAQAEEEIKQEMNTLQQKLNEQQSVLQRIAAPNMKAMEKLESVRDKFQETSDEFEAARKRAKKAKQAFEQIKKERFDRFNACFESVATNIDEIYKALSRNSSAQAFLGPENPEEPYLDGINYNCVAPGKRFRPMDNLSGGEKTVAALALLFAIHSYKPAPFFVLDEIDAALDNTNIGKVANYIKEQSTCNFQAIVISLKEEFYTKAESLIGVYPEQGDCVISKVLTFDLTKYPDANPNPNEQ [SMC1A] | -0.868 | -1.79 | 51.9 | 51.3 | 0.0456 | -0.302 |
| MGGGWWWARAARLARLRFRRSLLPPQRPRSGGARGSFAPGHGPRAGASPPPVSELDRADAWLLRKAHETAFLSWFRNGLLASGIGVISFMQSDMGREAAYGFFLLGGLCVVWGSASYAVGLAALRGPMQLTLGGAAVGAGAVLAASLLWACAVGLYMGQLELDVELVPEDDGTASAEGPDEAGRPPPE [TMEM160] | -1.62 | -1.47 | 54.2 | 56.9 | -0.0483 | -0.112 |
| MGGKLSKKKKGYNVNDEKAKEKDKKAEGAATEEEGTPKESEPQAAAEPAEAKEGKEKPDQDAEGKAEEKEGEKDAAAAKEEAPKAEPEKTEGAAEAKAEPPKAPEQEQAAPGPAAGGEAPKAAEAAAAPAESAAPAAGEEPSKEEGEPKKTEAPAAPAAQETKSDGAPASDSKPGSSEAAPSSKETPAATEAPSSTPKAQGPAASAEEPKPVEAPAANSDQTVTVKE [BASP1] | -5.91 | -9.69 | 48.2 | – | 0.98 | -1.08 |
